According to US9040017B2, “Liver-receptor imaging injection, dispensing method and pharmaceutical composition thereof” (INSTITUTE OF NUCLEAR ENERGY RESEARCH ATOMIC ENERGY COUNCIL, …, priority 2010, dated 2015):

Assay: Radiochemical purity before and after autoclave sterilization
Format: physicochemical
Conditions: DTPA-hexa-lactoside autoclaved in a lyophilized vial, then 111In radiolabel
Procedure: To test whether ^111In radiolabel of DTPA-hexa-lactoside was affected by autoclave sterilization, DTPA-hexa-lactoside was put into a lyophilized vial to set in an autoclave for sterilizing. After that, ^111In radiolabel proceeded. […] The comparison of radiochemical purity between before and after autoclave sterilization was illustrated in FIG. 2. First, a developing solvent of radio-ITLC of 10 mM sodium citrate buffer (about pH 5) were prepared as follows: 0.13 g citric acid monohydrate and 0.11 g trisodium citrate dehydrate were weighed precisely to dissolve in 100 ml water for injection. Then 10 ml of the solution were added in the developing tank as a developing solvent. The position away from the bottom of a TLC-SG film about 2 cm was marked with a pencil as the origin while the position away from the bottom about 9 cm was marked as the end. A few samples were taken by a micropipette to drop at the origin. Then, the TLC-SG film was put in a developing tank containing a buffer (about pH 5) of 10 mM sodium citrate to develop. The film were taken out to dry in the fume cabinet while the liquid level reached the end. […] The calculating formula is as follows: Radiochemical purity (%)=A/B×100%, wherein A refers to a calculated area peak of ^111In-DTPA-hexa-lactoside (Rf=0.0-0.1), and B refers to calculated area of all peaks.

DTPA derivatives of AHA-Asp[DCM-Lys(ah-Lac)3]2 [DTPA-hexa-lactoside]
radiochemical purity of 111In after autoclave sterilization: < 90%
